In article PMC3128523 one finds fold of Roco2 pulled down against wild-type Rab1A data, which are given here for one substance.

In this assay the target is GST-tagged constitutively active Rab1A Q67L (Dictyostelium) (UniProt P34139). The experiment in a line: pull-down.
UniProt P34139, sequence (P34139 whole entry Q67L): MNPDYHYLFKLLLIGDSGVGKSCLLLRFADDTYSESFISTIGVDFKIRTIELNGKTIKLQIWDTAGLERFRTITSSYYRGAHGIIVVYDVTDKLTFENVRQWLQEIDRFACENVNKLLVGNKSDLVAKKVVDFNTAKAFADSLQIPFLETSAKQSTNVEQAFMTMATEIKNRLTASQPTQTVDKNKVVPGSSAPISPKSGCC

With T7-tagged Roco2 (wild type) (enzyme), the fold of Roco2 pulled down against wild-type Rab1A is over 5 fold.
